How the values were obtained:
[1] = target: Biotin-FcγRIIB (human FcγRIIB, Sino Biological) (human) (UniProt P31994); test: NGS after FACS sort of 3T3-displayed LibraryMix for biotin-FcγRIIB binding
[2] = target: Biotin-FcγRIIB (human FcγRIIB, Sino Biological) (human) (UniProt P31994); test: flow cytometry, 3T3 cells displaying the antibody, biotin-FcγRIIB + Streptavidin-APC
[3] = target: Biotin-FcγRIIB (human FcγRIIB, Sino Biological) (human) (UniProt P31994); test: NGS after FACS sort of 3T3-displayed Library4 for biotin-FcγRIIB binding
[4] = target: Biotin-FcγRIIB (human FcγRIIB, Sino Biological) (human) (UniProt P31994); test: flow cytometry, 3T3 cells displaying the antibody, biotin-FcγRIIB
[5] = target: Biotin-FcγRIIB (human FcγRIIB, Sino Biological) (human) (UniProt P31994); test: NGS after FACS sort of 3T3-displayed Library2 for biotin-FcγRIIB binding

Sequence of Biotin-FcγRIIB (human FcγRIIB, Sino Biological) (human) (P31994 43-217 limits assumed): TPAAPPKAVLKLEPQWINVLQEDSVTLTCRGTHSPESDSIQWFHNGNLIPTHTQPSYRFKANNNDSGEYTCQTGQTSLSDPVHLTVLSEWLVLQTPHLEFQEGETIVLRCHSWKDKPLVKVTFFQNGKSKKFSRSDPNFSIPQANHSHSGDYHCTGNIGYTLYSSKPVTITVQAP

Substance: human IgG2 anti-mouse CD40 surface displayed antibody (wild-type Fc)
- Enrichment factor (percentage after sorting/percentage before sorting) [1]: 0.75
- proportion of the cells binding to FcγRIIB [2]: 0.34%
- Enrichment factor (percentage after sorting/percentage before sorting) [3]: 1.49
- proportion of the cells capable of binding to FcγRIIB [4]: 0.23%
- Enrichment factor (percentage after sorting/percentage before sorting) [5]: 0.57

Source: patent US20230220042A1 (SHANGHAI JIAO TONG UNIVERSITY SCHOOL OF MEDICINE, published 2023)
